Publication PMC10457294
Where “and” joins values, the source holds several entries; their conditions need not be identical. Identical values can stand only once.

Legend:
[1] = target: MPXV M2 (monkeypox virus M2 protein), His-tagged, wild type (monkeypox virus (Clade I)) (UniProt Q8V554); assay: SEC-MALS
[2] = target: human B7.2 ectodomain, His-tagged (human) (UniProt P42081); assay: cryo-EM structure
[3] = target: human B7.1 ectodomain, His-tagged (human) (UniProt P33681); assay: cryo-EM structure
Chain of human B7.1 ectodomain, His-tagged (human) (P33681 35-234): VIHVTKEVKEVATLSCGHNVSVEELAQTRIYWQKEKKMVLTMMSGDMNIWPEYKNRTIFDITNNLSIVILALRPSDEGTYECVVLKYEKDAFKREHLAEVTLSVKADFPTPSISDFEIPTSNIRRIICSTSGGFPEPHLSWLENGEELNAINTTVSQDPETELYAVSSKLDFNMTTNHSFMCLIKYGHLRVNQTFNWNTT

[4] = target: MPXV M2 (monkeypox virus M2 protein), His-tagged, wild type (monkeypox virus (Clade I)) (UniProt Q8V554); assay: cryo-EM structure
[5] = target: human B7.1 ectodomain fused to human Fc (human) (UniProt P33681); assay: BLI; […] (10 ug/mL) […]; 10 mM HEPES pH 7.4, 150 mM NaCl, 3 mM EDTA, 0.05% Tween, 1% BSA; 25 °C; 1:1 model; […]
Chain of human B7.1 ectodomain fused to human Fc (human) (P33681 35-234): as above

[6] = target: human B7.2 ectodomain fused to human Fc (human) (UniProt P42081); assay: as above
Chain of human B7.2 ectodomain fused to human Fc (human) (P42081 26-238): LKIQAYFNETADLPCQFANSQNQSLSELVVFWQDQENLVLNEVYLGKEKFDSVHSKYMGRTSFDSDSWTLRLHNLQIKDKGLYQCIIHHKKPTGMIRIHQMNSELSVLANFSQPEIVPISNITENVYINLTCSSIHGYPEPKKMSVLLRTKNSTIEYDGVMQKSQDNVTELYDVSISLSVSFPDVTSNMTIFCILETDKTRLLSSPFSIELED

Chain of human B7.2 ectodomain, His-tagged (human) (P42081 26-238): as above

Substance: MPXV M2 (monkeypox virus M2 protein), His-tagged, wild type (from UniProt Q8V554 18-220) (natural protein)
- stoichiometry N [1]: 6.12
- stoichiometry N [2]: 1
- stoichiometry N [3]: 1
- stoichiometry N [4]: 6 and 7
- t1/2 (dissociation half-life time) [5]: 6.62 h
- t1/2 (dissociation half-life time) [6]: 19.7 h
